Data published in article PMC9482650, “Quantitative fragmentomics allow affinity mapping of interactomes” (Nature Communications, 2022).

Experiments:
Assay in all cases: holdup assay
Design in all cases: key: below the threshold = too weak to quantify, mostly under pKd 3.1 to 4
MPP2, Q14168 = target: T1, MPP2, Q14168
T1 sequence (Q14168 180-250, limits assumed, looked up): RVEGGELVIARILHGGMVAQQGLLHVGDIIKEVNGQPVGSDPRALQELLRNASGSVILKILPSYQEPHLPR

DLG4_1, P78352 = target: DLG4_1, P78352
CARD11, Q9BXL7 = target: T2, CARD11, Q9BXL7
T2 sequence (Q9BXL7 662-765, limits assumed, looked up): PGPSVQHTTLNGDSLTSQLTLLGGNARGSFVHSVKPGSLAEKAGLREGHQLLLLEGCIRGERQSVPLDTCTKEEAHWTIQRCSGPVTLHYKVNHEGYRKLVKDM

NHERF4_1, Q86UT5-2 = target: NHERF4_1, Q86UT5-2
Chain of NHERF4_1, Q86UT5-2 (Q86UT5 other isoform, or with tags, fused parts or gaps): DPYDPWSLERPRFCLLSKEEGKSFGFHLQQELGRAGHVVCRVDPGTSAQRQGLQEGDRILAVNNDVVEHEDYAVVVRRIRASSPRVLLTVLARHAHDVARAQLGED

MAGI2_6, Q86UL8 = target: MAGI2_6, Q86UL8
Chain of MAGI2_6, Q86UL8 (Q86UL8 1141-1229): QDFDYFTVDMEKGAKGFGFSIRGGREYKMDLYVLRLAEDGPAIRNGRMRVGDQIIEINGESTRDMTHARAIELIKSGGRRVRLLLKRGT

GRASP, Q7Z6J2 = target: GRASP, Q7Z6J2
Chain of GRASP, Q7Z6J2 (Q7Z6J2 96-193): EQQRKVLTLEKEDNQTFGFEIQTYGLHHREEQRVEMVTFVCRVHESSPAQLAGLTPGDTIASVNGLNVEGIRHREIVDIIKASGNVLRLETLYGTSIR

GIPC2, Q8TF65 = target: GIPC2, Q8TF65
Chain of GIPC2, Q8TF65 (Q8TF65 112-203): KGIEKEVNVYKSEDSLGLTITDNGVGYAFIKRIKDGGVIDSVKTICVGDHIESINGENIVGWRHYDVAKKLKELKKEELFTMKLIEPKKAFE

MAGI2_5, Q86UL8 = target: MAGI2_5, Q86UL8
Chain of MAGI2_5, Q86UL8 (Q86UL8 915-1017): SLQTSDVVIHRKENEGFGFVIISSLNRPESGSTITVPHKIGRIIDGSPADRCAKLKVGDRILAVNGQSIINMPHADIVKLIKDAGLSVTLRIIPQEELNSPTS

DLG2_2, Q15700 = target: DLG2_2, Q15700
Chain of DLG2_2, Q15700 (Q15700 189-283): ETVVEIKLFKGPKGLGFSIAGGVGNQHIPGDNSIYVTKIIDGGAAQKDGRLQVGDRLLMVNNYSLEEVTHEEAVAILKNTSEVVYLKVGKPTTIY

MAST2, Q6P0Q8 = target: MAST2, Q6P0Q8
Chain of MAST2, Q6P0Q8 (Q6P0Q8 1099-1202): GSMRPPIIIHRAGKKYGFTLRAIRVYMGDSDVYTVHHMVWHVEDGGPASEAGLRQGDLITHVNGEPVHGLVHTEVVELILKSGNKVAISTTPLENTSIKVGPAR

MAGI1_1, Q96QZ7 = target: MAGI1_1, Q96QZ7
Chain of MAGI1_1, Q96QZ7 (Q96QZ7 1-106): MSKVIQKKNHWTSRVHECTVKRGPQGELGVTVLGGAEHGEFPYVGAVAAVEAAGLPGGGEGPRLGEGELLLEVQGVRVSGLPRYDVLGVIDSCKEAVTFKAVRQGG

PARD3B_1, Q8TEW8 = target: T3, PARD3B_1, Q8TEW8
T3 sequence (Q8TEW8 196-299, limits assumed, looked up): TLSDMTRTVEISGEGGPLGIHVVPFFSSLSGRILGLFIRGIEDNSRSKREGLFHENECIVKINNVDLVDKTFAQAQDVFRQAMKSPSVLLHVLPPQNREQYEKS

Inadl_3, Q8NI35 = target: Inadl_3, Q8NI35
Chain of Inadl_3, Q8NI35 (Q8NI35 359-469): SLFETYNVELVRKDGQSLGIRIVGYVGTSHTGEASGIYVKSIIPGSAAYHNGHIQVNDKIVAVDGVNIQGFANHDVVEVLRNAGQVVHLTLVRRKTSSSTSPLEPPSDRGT

FRMPD3, Q5JV73 = target: FRMPD3, Q5JV73
Chain of FRMPD3, Q5JV73 (Q5JV73 12-100): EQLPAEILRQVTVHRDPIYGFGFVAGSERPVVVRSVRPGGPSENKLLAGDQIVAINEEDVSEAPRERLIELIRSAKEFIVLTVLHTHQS

FRMPD1, Q5SYB0 = target: T4, FRMPD1, Q5SYB0
T4 sequence (Q5SYB0 52-145, limits assumed, looked up): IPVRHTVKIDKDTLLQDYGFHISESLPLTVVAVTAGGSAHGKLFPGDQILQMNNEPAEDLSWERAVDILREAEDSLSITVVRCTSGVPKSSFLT

GRIP2_6, Q9C0E4 = target: GRIP2_6, Q9C0E4
Chain of GRIP2_6, Q9C0E4 (Q9C0E4 648-740): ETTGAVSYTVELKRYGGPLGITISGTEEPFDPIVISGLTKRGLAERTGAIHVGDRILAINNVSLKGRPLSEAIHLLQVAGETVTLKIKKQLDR

PDZRN3_1, Q9UPQ7 = target: T5, PDZRN3_1, Q9UPQ7
T5 sequence (Q9UPQ7 244-349, limits assumed, looked up): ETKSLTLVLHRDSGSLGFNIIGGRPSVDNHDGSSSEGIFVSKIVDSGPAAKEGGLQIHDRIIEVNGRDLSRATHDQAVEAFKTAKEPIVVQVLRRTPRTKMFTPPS

LIN7A, O14910 = target: T6, LIN7A, O14910
T6 sequence (O14910 103-200, limits assumed, looked up): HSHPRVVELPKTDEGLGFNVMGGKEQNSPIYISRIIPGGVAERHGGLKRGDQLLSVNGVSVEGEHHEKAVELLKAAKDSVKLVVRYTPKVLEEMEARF

RADIL, Q96JH8 = target: T7, RADIL, Q96JH8
T7 sequence (Q96JH8 971-1071, limits assumed, looked up): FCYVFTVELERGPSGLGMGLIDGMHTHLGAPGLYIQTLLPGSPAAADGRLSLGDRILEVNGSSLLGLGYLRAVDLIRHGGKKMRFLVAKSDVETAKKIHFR

Inadl_10, Q8NI35 = target: Inadl_10, Q8NI35
Chain of Inadl_10, Q8NI35 (Q8NI35 1673-1763): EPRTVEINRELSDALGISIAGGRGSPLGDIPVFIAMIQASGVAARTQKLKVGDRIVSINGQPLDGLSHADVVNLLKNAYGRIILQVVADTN

ARHGEF12, Q9NZN5-2 = target: ARHGEF12, Q9NZN5-2
Chain of ARHGEF12, Q9NZN5-2 (Q9NZN5 other isoform, or with tags, fused parts or gaps): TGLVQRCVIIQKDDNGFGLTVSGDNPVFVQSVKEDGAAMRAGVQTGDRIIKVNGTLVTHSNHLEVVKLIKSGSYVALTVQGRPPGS

LDB3, O75112 = target: LDB3, O75112
Chain of LDB3, O75112 (O75112 1-94): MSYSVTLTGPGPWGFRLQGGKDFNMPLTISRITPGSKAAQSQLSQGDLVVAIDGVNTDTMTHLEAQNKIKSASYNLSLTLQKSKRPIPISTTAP

LIMK2, P53671 = target: LIMK2, P53671
Chain of LIMK2, P53671 (P53671 143-248): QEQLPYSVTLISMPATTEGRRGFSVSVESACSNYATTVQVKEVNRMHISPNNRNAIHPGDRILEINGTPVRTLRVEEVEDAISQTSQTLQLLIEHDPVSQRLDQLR

LNX2_3, Q8N448 = target: T8, LNX2_3, Q8N448
T8 sequence (Q8N448 463-564, limits assumed, looked up): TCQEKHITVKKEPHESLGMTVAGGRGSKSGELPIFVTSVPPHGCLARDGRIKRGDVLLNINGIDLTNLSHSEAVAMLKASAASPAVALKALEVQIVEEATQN

SNX27, Q96L92 = target: SNX27, Q96L92
PTPN3, P26045 = target: PTPN3, P26045
Chain of PTPN3, P26045 (P26045 505-587): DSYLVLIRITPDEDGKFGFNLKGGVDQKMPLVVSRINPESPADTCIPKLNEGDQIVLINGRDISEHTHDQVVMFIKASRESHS

SCRIB_1, Q14160 = target: SCRIB_1, Q14160
Chain of SCRIB_1, Q14160 (Q14160 718-814): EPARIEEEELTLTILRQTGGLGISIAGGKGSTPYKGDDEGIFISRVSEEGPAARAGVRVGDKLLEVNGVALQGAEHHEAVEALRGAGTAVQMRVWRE

ARHGAP21, Q5T5U3 = target: T9, ARHGAP21, Q5T5U3
T9 sequence (Q5T5U3 45-169, limits assumed, looked up): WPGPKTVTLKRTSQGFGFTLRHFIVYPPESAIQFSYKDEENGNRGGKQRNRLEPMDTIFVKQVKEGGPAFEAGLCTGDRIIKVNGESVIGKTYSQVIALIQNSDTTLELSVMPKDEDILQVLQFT

Inadl_8, Q8NI35 = target: Inadl_8, Q8NI35
Chain of Inadl_8, Q8NI35 (Q8NI35 1425-1530): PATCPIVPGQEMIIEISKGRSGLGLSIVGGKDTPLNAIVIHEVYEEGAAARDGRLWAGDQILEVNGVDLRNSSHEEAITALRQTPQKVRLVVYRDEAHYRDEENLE

[1] = plain residues with an end cap or a label only (N-terminal biotin on a linker: ahx)
[2] = plain residues with an end cap or a label only (N-terminal biotin on a linker: ado-ado)

Chain of DLG4_1, P78352 (P78352 62-152): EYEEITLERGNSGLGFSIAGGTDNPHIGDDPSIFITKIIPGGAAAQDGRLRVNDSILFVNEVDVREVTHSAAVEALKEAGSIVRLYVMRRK

In the case of EKQAKGDTEF [CACYBP, Q9HB71], the pKd (MPP2, Q14168; [1]) is reported as “below the threshold”, the pKd (DLG4_1, P78352; [1]) is reported as “below the threshold” and the pKd (CARD11, Q9BXL7; [1]) is reported as “below the threshold”. The pKd (NHERF4_1, Q86UT5-2; [1]) was “below the threshold”, the pKd (MAGI2_6, Q86UL8; [1]) was “below the threshold” and the pKd (GRASP, Q7Z6J2; [1]) was “below the threshold”. The pKd (GIPC2, Q8TF65; [1]) was “below the threshold”, the pKd (MAGI2_5, Q86UL8; [1]) was “below the threshold” and the pKd (DLG2_2, Q15700; [1]) was “below the threshold”. For the same binder, the pKd (MAST2, Q6P0Q8; [1]) was “below the threshold”, the pKd (MAGI1_1, Q96QZ7; [1]) was “below the threshold” and the pKd (PARD3B_1, Q8TEW8; [1]) was “below the threshold”. For the same binder, the pKd (Inadl_3, Q8NI35; [1]) was “below the threshold”, the pKd (FRMPD3, Q5JV73; [1]) was 3.81 and the pKd (FRMPD1, Q5SYB0; [1]) was “below the threshold”. The pKd (GRIP2_6, Q9C0E4; [1]) was “below the threshold”, the pKd (PDZRN3_1, Q9UPQ7; [1]) was “below the threshold” and the pKd (LIN7A, O14910; [1]) was “below the threshold”. For the same binder, the pKd (RADIL, Q96JH8; [1]) was “below the threshold”, the pKd (Inadl_10, Q8NI35; [1]) was “below the threshold” and the pKd (ARHGEF12, Q9NZN5-2; [1]) was “below the threshold”. For the same binder, the pKd (LDB3, O75112; [1]) was “below the threshold”, the pKd (LIMK2, P53671; [1]) was “below the threshold” and the pKd (LNX2_3, Q8N448; [1]) was “below the threshold”. For the same binder, the pKd (SNX27, Q96L92; [1]) was 3.68, the pKd (PTPN3, P26045; [1]) was 4.25 and the pKd (SCRIB_1, Q14160; [1]) was “below the threshold”. The pKd (ARHGAP21, Q5T5U3; [1]) was “below the threshold” and the pKd (Inadl_8, Q8NI35; [1]) was “below the threshold”.

KPGKGSETVV [FZD4, Q9ULV1] was tested, and the pKd (MPP2, Q14168; [2]) was “below the threshold”, the pKd (DLG4_1, P78352; [2]) was 4.85 and the pKd (CARD11, Q9BXL7; [2]) was “below the threshold”. For the same binder, the pKd (NHERF4_1, Q86UT5-2; [2]) was “below the threshold”, the pKd (MAGI2_6, Q86UL8; [2]) was “below the threshold” and the pKd (GRASP, Q7Z6J2; [2]) was “below the threshold”. The pKd (GIPC2, Q8TF65; [2]) was 3.57, the pKd (MAGI2_5, Q86UL8; [2]) was 3.55 and the pKd (DLG2_2, Q15700; [2]) was 4.87. The pKd (MAST2, Q6P0Q8; [2]) was 4.91, the pKd (MAGI1_1, Q96QZ7; [2]) was “below the threshold” and the pKd (PARD3B_1, Q8TEW8; [2]) was “below the threshold”. For the same binder, the pKd (Inadl_3, Q8NI35; [2]) was 3.55, the pKd (FRMPD3, Q5JV73; [2]) was “below the threshold” and the pKd (FRMPD1, Q5SYB0; [2]) was “below the threshold”. The pKd (GRIP2_6, Q9C0E4; [2]) was “below the threshold”, the pKd (PDZRN3_1, Q9UPQ7; [2]) was 3.71 and the pKd (LIN7A, O14910; [2]) was “below the threshold”. For the same binder, the pKd (RADIL, Q96JH8; [2]) was 3.97, the pKd (Inadl_10, Q8NI35; [2]) was “below the threshold” and the pKd (ARHGEF12, Q9NZN5-2; [2]) was “below the threshold”. For the same binder, the pKd (LDB3, O75112; [2]) was “below the threshold”, the pKd (LIMK2, P53671; [2]) was “below the threshold” and the pKd (LNX2_3, Q8N448; [2]) was “below the threshold”. It also gave a pKd (SNX27, Q96L92; [2]) of 4.62, a pKd (PTPN3, P26045; [2]) of 4.13 and a pKd (SCRIB_1, Q14160; [2]) of 4.04. The pKd (ARHGAP21, Q5T5U3; [2]) was 3.93 and the pKd (Inadl_8, Q8NI35; [2]) was 3.49.

For SLNANEVEWF [RNF130, Q86XS8], the pKd (MPP2, Q14168; [2]) was “below the threshold”, the pKd (DLG4_1, P78352; [2]) was “below the threshold” and the pKd (CARD11, Q9BXL7; [2]) was “below the threshold”. For the same binder, the pKd (NHERF4_1, Q86UT5-2; [2]) was 3.89, the pKd (MAGI2_6, Q86UL8; [2]) was 3.81 and the pKd (GRASP, Q7Z6J2; [2]) was 4.08. For the same binder, the pKd (GIPC2, Q8TF65; [2]) was “below the threshold”, the pKd (MAGI2_5, Q86UL8; [2]) was 3.51 and the pKd (DLG2_2, Q15700; [2]) was “below the threshold”. The pKd (MAST2, Q6P0Q8; [2]) was 4.32, the pKd (MAGI1_1, Q96QZ7; [2]) was “below the threshold” and the pKd (PARD3B_1, Q8TEW8; [2]) was 4.35. The pKd (Inadl_3, Q8NI35; [2]) was “below the threshold”, the pKd (FRMPD3, Q5JV73; [2]) was 4.07 and the pKd (FRMPD1, Q5SYB0; [2]) was “below the threshold”. The pKd (GRIP2_6, Q9C0E4; [2]) was “below the threshold”, the pKd (PDZRN3_1, Q9UPQ7; [2]) was “below the threshold” and the pKd (LIN7A, O14910; [2]) was “below the threshold”. For the same binder, the pKd (RADIL, Q96JH8; [2]) was 4.59, the pKd (Inadl_10, Q8NI35; [2]) was “below the threshold” and the pKd (ARHGEF12, Q9NZN5-2; [2]) was “below the threshold”. The pKd (LDB3, O75112; [2]) was “below the threshold”, the pKd (LIMK2, P53671; [2]) was 3.5 and the pKd (LNX2_3, Q8N448; [2]) was “below the threshold”. For the same binder, the pKd (SNX27, Q96L92; [2]) was 3.94, the pKd (PTPN3, P26045; [2]) was 4.36 and the pKd (SCRIB_1, Q14160; [2]) was 3.77. For the same binder, the pKd (ARHGAP21, Q5T5U3; [2]) was 4.49 and the pKd (Inadl_8, Q8NI35; [2]) was “below the threshold”.

With TRKRSGEAAV [PFKM, P08237] the pKd (MPP2, Q14168; [2]) was “below the threshold”, the pKd (DLG4_1, P78352; [2]) was “below the threshold” and the pKd (CARD11, Q9BXL7; [2]) was “below the threshold”. The pKd (NHERF4_1, Q86UT5-2; [2]) was “below the threshold”, the pKd (MAGI2_6, Q86UL8; [2]) was “below the threshold” and the pKd (GRASP, Q7Z6J2; [2]) was “below the threshold”. The pKd (GIPC2, Q8TF65; [2]) was “below the threshold”, the pKd (MAGI2_5, Q86UL8; [2]) was “below the threshold” and the pKd (DLG2_2, Q15700; [2]) was 3.59. For the same binder, the pKd (MAST2, Q6P0Q8; [2]) was 4.16, the pKd (MAGI1_1, Q96QZ7; [2]) was “below the threshold” and the pKd (PARD3B_1, Q8TEW8; [2]) was “below the threshold”. The pKd (Inadl_3, Q8NI35; [2]) was “below the threshold”, the pKd (FRMPD3, Q5JV73; [2]) was “below the threshold” and the pKd (FRMPD1, Q5SYB0; [2]) was “below the threshold”. The pKd (GRIP2_6, Q9C0E4; [2]) was “below the threshold”, the pKd (PDZRN3_1, Q9UPQ7; [2]) was “below the threshold” and the pKd (LIN7A, O14910; [2]) was “below the threshold”. For the same binder, the pKd (RADIL, Q96JH8; [2]) was “below the threshold”, the pKd (Inadl_10, Q8NI35; [2]) was “below the threshold” and the pKd (ARHGEF12, Q9NZN5-2; [2]) was “below the threshold”. For the same binder, the pKd (LDB3, O75112; [2]) was “below the threshold”, the pKd (LIMK2, P53671; [2]) was “below the threshold” and the pKd (LNX2_3, Q8N448; [2]) was “below the threshold”. The pKd (SNX27, Q96L92; [2]) was 3.83, the pKd (PTPN3, P26045; [2]) was 4.15 and the pKd (SCRIB_1, Q14160; [2]) was “below the threshold”. For the same binder, the pKd (ARHGAP21, Q5T5U3; [2]) was 3.83 and the pKd (Inadl_8, Q8NI35; [2]) was 3.57.
